Results on nine molecules are retold here after patent US20140086829A1 (BIOREC S A, published 2014).

Broadly, the Kd is the free concentration of one partner at which half of the binding sites on the other are occupied at equilibrium, for simple one-to-one binding. Read a low Kd as tighter binding.

Residue numbers refer to the chain shown, from its start.

Test [1] has as its target T1, isoform 165 of human VEGF-A (Peprotech) (human, UniProt P15692-4 27-191).
T1 construct: also called human VEGF165; VEGF 165
Briefly: SPR, BIAcore-X. A general note: Surface plasmon resonance follows binding to a sensor surface in real time, without labels.
Experimental: (§1) A CM5 sensor chip was activated via the covalent binding of human VEGF using N-Ethyl-N′-(3-dimethylaminopropyl)carbodihimide hydrochloride (EDC) and N-hydroxysuccinimide (NHS), according to the manufacturer's instructions.
(§2) The kinetic parameters and the equilibrium dissociation constants (KD) were calculated using the BIA Evaluation 3.2 software. The binding data were globally adjusted to a Langmuir 1:1 binding model.

Test [2] has as its target P64K-VEGFKDR- (human) (UniProt P15692). In words: ELISA; antigen coated 1 µg/ml; scFv 10 µg/mL; 9E10-peroxidase.
Test [3] has as its target T2, isoform 121 of human VEGF-A (Peprotech) (human, UniProt P15692-9 27-147).
T2 construct: also called human VEGF121; VEGF 121
T2 sequence (looked up): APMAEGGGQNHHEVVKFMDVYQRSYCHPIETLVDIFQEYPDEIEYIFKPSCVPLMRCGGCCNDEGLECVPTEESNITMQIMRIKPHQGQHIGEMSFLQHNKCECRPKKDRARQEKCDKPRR
The test is described as above.
Experimental: (§3) After several washes, 9E10 monoclonal antibody conjugated to peroxidase was added for 1 hour. After washing, the fragments bound to the solid phase were detected by the addition of substrate solution. The absorbance was read at 492 nm in a microplate reader.

Test [4] addresses T1, isoform 165 of human VEGF-A (Peprotech). The description is as above.
Target sequence in this assay (P15692 other isoform, or with tags, fused parts or gaps limits assumed): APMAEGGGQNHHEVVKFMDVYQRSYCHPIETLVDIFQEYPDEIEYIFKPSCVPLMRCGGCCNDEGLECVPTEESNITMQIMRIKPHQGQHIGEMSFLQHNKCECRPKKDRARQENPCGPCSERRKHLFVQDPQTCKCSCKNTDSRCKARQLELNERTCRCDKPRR
Experimental: as §3
Test [5] has as its target T3, mouse VEGF (Peprotech) (mouse, UniProt Q00731-2 27-190, limits assumed).
T3 construct: also called Mouse VEGF-A
T3 sequence (looked up): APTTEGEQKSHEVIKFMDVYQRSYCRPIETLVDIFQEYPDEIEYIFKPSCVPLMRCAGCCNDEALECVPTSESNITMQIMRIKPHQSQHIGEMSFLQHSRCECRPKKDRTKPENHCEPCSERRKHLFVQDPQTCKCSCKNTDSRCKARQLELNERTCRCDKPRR
The test is described as above.
Experimental: as §3

Test [6] deals with T1, isoform 165 of human VEGF-A (Peprotech). In words: SPR, BIAcore-X; VEGF 165 coupled to CM5 chip; scFv injected; Langmuir 1:1.
Target sequence in this assay (P15692 other isoform, or with tags, fused parts or gaps limits assumed): as the sequence (P15692 other isoform, or with tags, fused parts or gaps limits assumed) above
Experimental: as §1, §2
For test [7], the target named is T2, isoform 121 of human VEGF-A (Peprotech). Briefly: competition ELISA: human VEGF-A isoform 121 coated, scFv varied, blocked ligand soluble KDR-Fc (VEGFR2) at 0.5 ug/mL, bound KDR-Fc detected with anti-human IgG-HRPO, absorbance 492 nm. (In general: ELISA stands for enzyme-linked immunosorbent assay.)
Text: Detection of bound soluble receptors was made using anti human IgG antibodies conjugated with HRPO.
The next test deals with T4, human GST-VEGF (human, UniProt P15692-9 27-147).
T4 construct: also called GST-VEGF humano; not shown: GST fusion partner
T4 sequence (looked up): T2 sequence (looked up)
Briefly: competition ELISA on coated GST-VEGF with soluble scFv 2H1.

Test [8] has as its target P64K-VEGFKDR- (human) (UniProt P15692). Briefly: ELISA; antigen coated 1 µg/ml; Fab 10 µg/mL; 9E10-peroxidase.
Test [9] deals with T2, isoform 121 of human VEGF-A (Peprotech). The test is described as above.
Experimental: (§4) After blocking the plates with PBS-skimmed milk 4%, the Fab antibody fragments diluted in PBS-skimmed milk 4% were added at a 10 μg/mL concentration, and incubated for 1 h at 22° C. After several washes, 9E10 monoclonal antibody conjugated to peroxidase was added for 1 hour. After washing, the fragments bound to the solid phase were detected by the addition of substrate solution. The absorbance was read at 492 nm in a microplate reader.
Test [10] deals with T1, isoform 165 of human VEGF-A (Peprotech). Described as above.
Target sequence in this assay (P15692 other isoform, or with tags, fused parts or gaps limits assumed): as the sequence (P15692 other isoform, or with tags, fused parts or gaps limits assumed) above
Experimental: as §4
The target in test [11] is T3, mouse VEGF (Peprotech). The test is described as above.
Experimental: as §4

Experimental for human GST-VEGF: For this, Maxisorp 96-well plates (Nunc) were coated with 10 μg/mL GST-VEGF, followed by blocking with PBS-4% skimmed milk. […] After several washes with PBS-0.1% Tween 20, VEGF-bound phages were detected using an anti-M13 antibody, conjugated to peroxidase (Amersham-Pharmacia) for 1 hour at 22° C. Following several washes, the reactions were developed with substrate solution. Absorbance was read at 492 nm in a microplate reader. […] This value is a relative indicator of the affinity of the different clones for the antigen. Higher IC50 values correspond with higher affinity.

B1: scFv L3H6 antibody fragment (scFv)
scFv: QQVQLVQSGAEVKKPGESLKISCKGSGYSFTSYWIGWVRQMPGKGLEWMGIIYPGDSDTRYSPSFQGQVTISADKSISTAYLQWSSLKASDTAMYYCARQGTHNRKIWGQGTMVTVSSAPQAKSSGSGSESKVDQAVVTQEPSLTVSPGGTVTLTCASSTGAVTSGNYPNWFQQRPGQPPRALIYSTSNKHSWTPARFSGSLLGGKAALTLSGAQPEDEAEYYCRLSYDLARPVFGGGTKLTVLG
notes: soluble, from E. coli
Take B1: in test [1], the “fold affinity against scFv 2H1” value was in the range of 5 to 20 fold. In addition, the absorbance at 492 nm in the test with P64K-VEGFKDR- (human) [2] amounted to 2.77; in test [3], 2.84; in [4], 2.89; with mouse VEGF (Peprotech) [5], 1.43. The same molecule yielded a Kd in [6] of 26.1 nM. Also, the “IC50 (read off the curve)” value in test [7] was ~8 µg/mL.

B2: phage displayed scFv clone 4D8 (scFv)
scFv: B1 scFv with Q100P, G101Y, T102A, H103T, N104D, R105T, K106R, R225L, D229S, L230G
modifications: Displayed on M13 phage as a protein III fusion; the phage part is not in the letters.
notes: also called VH H7
Take B2: in the test with human GST-VEGF, the “fold IC50 (relative affinity) against the original phage displayed scFv 2H1” value was in the range of 6 to 10 fold.

B3: scFv L3H5 antibody fragment (scFv)
scFv: B1 scFv with Q100L, G101V, T102H, H103R, N104Y, K106A
notes: soluble, from E. coli
Consider B3, for which the absorbance at 492 nm with P64K-VEGFKDR- (human) [2] was 2.61; in test [3], 2.78; in test [4], 2.8; in the test with mouse VEGF (Peprotech) [5], 1.39. In addition, in test [6], the Kd was 42.1 nM. In addition, the “IC50 (read off the curve)” value in test [7] is ~9 µg/mL.

B4: phage displayed scFv clone 3F3 (scFv)
scFv: B1 scFv with R225L, D229S, L230G
modifications: Displayed on M13 phage as a protein III fusion; the phage part is not in the letters.
notes: also called VH H6
Take B4: in the test with human GST-VEGF, the “fold IC50 (relative affinity) against the original phage displayed scFv 2H1” value is 6 to 10 fold.

B5: scFv L3H7 antibody fragment (scFv)
scFv: B1 scFv with Q100P, G101Y, T102A, H103T, N104D, R105T, K106R
notes: soluble, from E. coli
B5: the “fold affinity against scFv 2H1” value in test [1] is 5 to 20 fold. Moreover, the absorbance at 492 nm in the test with P64K-VEGFKDR- (human) [2] was 2.47; in test [3] it was 2.54; in [4], 2.51; with mouse VEGF (Peprotech) [5], 1.12. In test [6], the affinity, expressed as Kd, was 87.3 nM. Also, in [7], the “IC50 (read off the curve)” value is ~10 µg/mL.

B6: Fab 2H1-32 (Fab, V domains shown)
VH: QVQLVQSGAEVKKPGESLKISCKGSGYSFTSYWIGWVRQMPGKGLEWMGIIYPGDSDTRYSPSFQGQVTISADKSISTAYLQWSSLKASDTAMYYCARLVVRDTEIWGQGTMVTVSS
VL: QAVVTQEPSLTVSPGGTVTLTCASSIGAVTSGNYPNWFQQRPGQPPRALIYSTSNKHSWTPARFSGSLLGGKAALTLSGAQPEDEAEYYCLLSYSGARPVFGGGTKLTVLG
For B6, the absorbance at 492 nm with P64K-VEGFKDR- (human) [8] stood at 0.704; in [9], 0.589; in test [10] it was 0.601; with mouse VEGF (Peprotech) [11] it was 0.091.

B7: Fab L3H6 (Fab, V domains shown)
VH: B6 VH with L99Q, V100G, V101T, R102H, D103N, T104R, E105K
VL: B6 VL with I26T, L91R, S95D, G96L
notes: The entries are the mature chains without the six histidines and c-myc that the heavy chain carried at its C-terminus in the assay
Consider B7, for which the absorbance at 492 nm with P64K-VEGFKDR- (human) [8] was determined as 2.6; in [9] it was 2.56; in [10] it was 2.46; in the test with mouse VEGF (Peprotech) [11], 1.19.

B8: Fab L3H5 (Fab, V domains shown)
VH: B6 VH with V101H, D103Y, T104R, E105A
VL: B6 VL with I26T, L91R, S95D, G96L
notes: Entries lack the six histidines and c-myc of the heavy chain
As to B8, the absorbance at 492 nm is 2.51 in the test with P64K-VEGFKDR- (human) [8], 2.25 in test [9], 2.35 in [10] and 1.09 with mouse VEGF (Peprotech) [11].

B9: Fab L3H7 (Fab, V domains shown)
VH: B6 VH with L99P, V100Y, V101A, R102T, E105R
VL: B6 VL with I26T, L91R, S95D, G96L
notes: as for B8
Turning to B9, the absorbance at 492 nm was found to be 2.42 with P64K-VEGFKDR- (human) [8], 2.22 in [9], 2.2 in test [10] and 1.1 with mouse VEGF (Peprotech) [11].
